Numbering of substitutions follows the chain as printed.
T1: human GITR-His (human, UniProt Q9Y5U5 26-161)
T1 construct: Bought from Acro biosystems; also called GITR-His (Acro biosystems); antigen GITR-His
T1 sequence: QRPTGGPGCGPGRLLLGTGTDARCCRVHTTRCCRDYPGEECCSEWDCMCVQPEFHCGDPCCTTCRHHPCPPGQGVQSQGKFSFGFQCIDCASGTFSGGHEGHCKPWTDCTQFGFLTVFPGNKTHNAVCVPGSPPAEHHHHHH

T2: human GITR overexpressed on CHO cells (CHO-GITR) (human, UniProt Q9Y5U5 26-241)
T2 construct: whole, on cells; also called cell surface GITR protein; antigen expressed on the cell surface
T2 sequence (looked up): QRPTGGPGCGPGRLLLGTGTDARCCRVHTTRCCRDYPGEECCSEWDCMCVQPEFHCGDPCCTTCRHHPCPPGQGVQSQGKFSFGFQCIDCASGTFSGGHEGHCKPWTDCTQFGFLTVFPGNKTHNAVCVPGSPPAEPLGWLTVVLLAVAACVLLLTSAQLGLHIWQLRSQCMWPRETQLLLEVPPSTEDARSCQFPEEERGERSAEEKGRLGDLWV

B1: Nb-09 (VHH)
VHH: QVQLQESGGGLVQPGGSLRLSCGASGFTFSSTAMWWFRQAPGKGLEWVSSITSDVSGTYYADSVQGRFTISRDNGKNTVYLQMNSLRSEDTALYYCATSCGFSGGTWSCKYRGQGTQVTVSS
notes: Tested as crude extract from E. coli (osmotic shock)
B2: Nb-16 (VHH)
VHH: QVQLQESGGGSVQAGGSLRLSCAASGYTYNKYSWGWFRQAPGKEREGVAGIDSDGSTSYADSVKGRFTISKDNTKNTLYLQMNSLKPEDTAMYYCAASDWVSAIQALGVLAVRPYEYWGQGTQVTVSS
notes: as for B1
B3: Nb-18 (VHH)
VHH: QVQLQESGGGSVQTGGSLRLSCAASGLTSTTKYMGWFRQAPGKEREGVAGIYISSGATYYDDSVKGRFTISQDNAKNTVYLHINSLEPDDTAMYYCAASVLSVFRPLSSNQYHYWGQGTQVTVSS
notes: as for B1
B4: Nb-22 (VHH)
VHH: QVQLQESGGGSVQAGGSLRLSCAASGYTFTTAYMGWFRQAPGKEREGVAAIDSDGRTEYADAVKGRFTISKDNAKNTLYLQMNSLKPEDTAMYYCAADKDDWLLLHGRSLFPSAFAYWGQGTQVTVSS
notes: as for B1
B5: Nb-04 (VHH)
VHH: QVQLQESGGGSVQAGGSLRLSCTASGFTVDDSGMGWYRQAPGNECELVSTISSDGSTYYADSVKGRFTISQDNAKNTVYLQMNSLKPEDTAVYYCAAPRVGVGWVRPCDYEYNYWGQGTQVTVSS
notes: as for B1
B6: Nb-11 (VHH)
VHH: B5 VHH with A14T, V29F, D31A, S32A, G33D, T50I
notes: as for B1
B7: Nb-15 (VHH)
VHH: QVQLQESGGGSVQAGGSLRLSCVVFGNIFRNYCMAWFRQAPGKEREGVVVIYTGGGSTYYADSVKGRFTISQDNAKNTVYLQMNSLKHEDTAMYYCAADQTTRYSSDYVNVGPCDMDSWGKGTQVTVSS
notes: as for B1
B8: Nb-06 (VHH)
VHH: QVQLQESGGGSVQAGGSLRLSCAASGYAYTRNCMGWFRQAPGKEREEVATINLGGGSTYYADSVKGRFAISQDNAKNTVYLQMNNLKPEDTAMYYCAAIAQYGGSLCSNFGWYNLWGQGTQVTVSS
notes: as for B1
B9: Nb-08 (VHH)
VHH: QVQLQESGGGSVQAGGSLRLSCAASGYTSSRKYIGWFRQAPGKQREWVAGIDTGAGGTCTIASVQGRFTISQDVAKNTLYLQIDSLKPEDTAVYYCAADWVRGGFCSGDADFRYWGQGTQVTVSS
notes: as for B1
B10: Nb-21 (VHH)
VHH: QVQLQESGGGSVQAGGSLRLSCRTSGYTNNLKSMAWFRQAPGKEREAVASIHNNGGPTYDYYAESVKGRFAISQDNAKNTLYLQMSSAKPEDTAVYYCAADNRFLGSGSWRLPSLYNYWGQGTQVTVSS
notes: as for B1
B11: Nb-17 (VHH)
VHH: QVQLQESGGGSAQAGGSLRLSCAASRYTSSSNAMGWFRQAPGKQREWVAGSDTGAGITCNAASVKGRFTISQDVAKNTVYLQMNSLKPEDTAVYYCAADWFRGAFCSGDADFRYWGQGTQVTVSS
notes: as for B1
B12: Nb-13 (VHH)
VHH: QVQLQESGGGSVQAGGSLRLSCTASSNTGRMGWFRQAPGKEREGVTAVDNFGRTNYAKYVKGRFTISKDNAKNTLYLQMNSLKPEDTAMYYCAADPWGRGAALTPNEYIYWGQGTQVTVSS
notes: as for B1
B13: Nb-05 (VHH)
VHH: QVQLQESGGGLVQPGGSLRLSCAASGFTFSNKVMSWVRQAPGKGFEWVSSIARGGDWTTYADSVEGRFTISRDNAKNTLYLQLNSLKTEDTAMYYCAQAENWKTPPGQGTQVTVSS
notes: as for B1
B14: Nb-20 (VHH)
VHH: QVQLQESGGGSVQAGGSLRLSCASSGYSRTSRWMAWFRQAPGKEREGVAAIYTGGSSTLYANSMADRVTISQDNAKNTVYLRMNNLKPEDTAMYYCAADKLAGDFWLVDRWRAWGQGTQVTVSS
notes: as for B1
B15: Nb-14 (VHH)
VHH: QVQLQEFGGGSVQAGGSLRLSCVASGFTFSNYCMGWFRQDPGKEREAVARIFVDGSTRYADAVKGRFTISKDNAKNTLYVQINSLKPEDTAMYYCTTPFPWTLCVDGPGAYKYWGQGTQVTVSS
notes: as for B1
B16: Nb-03 (VHH)
VHH: QVQLQESGGGSVQAGGSLRLSCAASGYTYSGYCMGWFRQAPGKEHEGVASIVSGLGRPYYADSVKGRFTISQDNAKNTVYLQMNSLKPEDTAMYYCAAEWATKLCSEIPATEWDYWGQGTQVTVSS
notes: as for B1
B17: Nb-01 (VHH)
VHH: QVQLQESGGGLVQPGGSLRLSCTASGLTFDDYAMGWFRQAPGKGREGVSLITWSGSSTYYADSVKGRFTVSRDTATNTLVLQMNSLKPEDTAMYYCAADPRSGGYYSSPPPPAVYRYLRFWGQGTQVTVSS
notes: as for B1
B18: Nb-07 (VHH)
VHH: QVQLQESGGGLVQAGGSLKLSCTVSGFAFGSSHMSWVRRAPGKGLEWVSTIHSGGGFGDYANSVQGRFTISRDVAKNTLYLQMNSLKPEDTAIYYCALATDWRKPPGQGTQVTVSS
notes: as for B1
B19: Nb-10 (VHH)
VHH: B18 VHH with A14P, K19R, T23A, V24A
notes: as for B1
B20: Nb-02 (VHH)
VHH: QVQLQESGGGSVQAGGSLRLSCAASRDTYTRYFMGWFRQTPGKEGEGVAVLLPGGDYTFYADSVKGRFTITQDSAKNTVYLQMNSLKPEDTAMYYCAADVTVGSRWSQASNYNYWGQGTQVTVSS
notes: as for B1
B21: Nb-12 (VHH)
VHH: B20 VHH with G45P, D56A
notes: as for B1
B22: Nb-19 (VHH)
VHH: QVQLQESGGGSVQAGGSLRLSCAASGFTYSNYCMAWFRQAPGKEREGVAAIDSDGSTSYADSVKGRFTISQDNAKNTLYLQMNSLKPEDTAMYYCAAGNKKPYQLCNTDSRRYYHWGQGTQVTVSS
notes: as for B1
B23: hcIgG-04 (antibody, V domains shown)
VH: B5 VHH
notes: also called heavy-chain antibody of Nb-04
B24: hcIgG-02 (antibody, V domains shown)
VH: B20 VHH
notes: also called heavy-chain antibody of Nb-02

The binders below were run against T1, human GITR-His (assay: PE-ELISA, crude nanobody on coated GITR-His, anti-HA detection).
Protocol: (§1) (2) crude antibodies were obtained by a conventional osmotic shock method, and the crude antibodies were transferred to an enzyme-labeled plate (Nunc) coated with the antigen GITR-His overnight, and incubated at room temperature for 1 h;
(3) unbound antibodies were washed off with PBST, then mouse anti-HA tag antibody (SinoBiological) was added, and placed at room temperature for 1 h;

Row | Binder | Sample OD (+)
1 | B1 | 1.45 OD (405 nm)
2 | B2 | 1.67 OD (405 nm)
3 | B3 | 1.01 OD (405 nm)
4 | B4 | 0.606 OD (405 nm)
5 | B5 | 1.63 OD (405 nm)
6 | B6 | 0.552 OD (405 nm)
7 | B7 | 1.25 OD (405 nm)
8 | B8 | 0.314 OD (405 nm)
9 | B9 | 1.71 OD (405 nm)
10 | B10 | 0.522 OD (405 nm)
11 | B11 | 1.04 OD (405 nm)
12 | B12 | 0.263 OD (405 nm)
13 | B13 | 1.41 OD (405 nm)
14 | B14 | 1.41 OD (405 nm)
15 | B15 | 0.46 OD (405 nm)
16 | B16 | 0.786 OD (405 nm)
17 | B17 | 0.467 OD (405 nm)
18 | B18 | 2.35 OD (405 nm)
19 | B19 | 2.27 OD (405 nm)
20 | B20 | 1.43 OD (405 nm)
21 | B21 | 0.444 OD (405 nm)
22 | B22 | 1.32 OD (405 nm)

Each binder was assayed against T1, human GITR-His (assay: ForteBio BLI, antibody on AHQ tip, human GITR-His 100 nM in solution, 1:1 model).
Protocol: (2) Experimental procedure: 100 μl of SD buffer and antibodies (hcIgG-02, hcIgG-03, hcIgG-04, hcIgG-07, hcIgG-09, hcIgG-10, hcIgG-16 and hcIgG-20, control antibody), GITR-His (Acro biosystems) were added to a 96-well half-volume black polystyrene microplate. The plate was arranged according to the positions of the samples, the position of the sensor was selected, and the operation procedures were set as: Baseline, Loading ˜1 nm, Baseline, Association and Dissociation, each running for a time depending on the binding and dissociation rates of the sample, at a rotation speed of 400 rpm and a temperature of 30° C.
(3) A 1:1 binding model was adopted for kinetic analysis.

Row | Binder | Kd [nM] | koff [s⁻¹] | kon [M⁻¹ s⁻¹]
23 | B23 | 7.92 | 0.00202 | 256000
24 | B24 | 6.33 | 0.00214 | 338000

These binders were tested against T2, human GITR overexpressed on CHO cells … (assay: flow cytometry on CHO-GITR cells, PE anti-human Fc detection, MFI; direct binding titration, the table row is labelled IC50, nM is taken from the concentration axis).
Protocol: (1) Cell preparation: The pCHO1.0 vector (Invitrogen) carrying human GITR cDNA cloned to a multiple cloning site (MCS) was transfected into Chinese hamster ovary cancer cells (CHO) (Invitrogen) to produce human GITR-overexpressing CHO cells (CHO-GITR), the CHO cells (CHO-GITR) overexpressing human GITR on the surface thereof were counted, and diluted to 1×10⁶ cells/mL, and added to a U-bottom 96-well plate with 100 μL/well.
(1) Detection: The cell suspension was centrifuged at 400 g for 5 min to remove the cell medium. Serial dilutions of the sample were added to a U-shaped plate, and then the cells were resuspended and added to the plate with 100 μL/well. The plate was put onto the ice to stand for 30 min The cell suspension was centrifuged at 400 g for 5 min, and the supernatant was discarded. The cells were washed once with PBS, and then centrifuged at 400 g for 5 min to remove PBS. 100 μL of the solution of PE-conjugated anti-human Fc antibody (Jackson Immuno Research) diluted at a ratio of 1:200 was added to each well, and the cells were incubated in dark on the ice for 30 min The cell suspension was centrifuged at 400 g for 5 min, and the supernatant was discarded. The cells were washed once with PBS. The cells were resuspended with 100 μL of PBS.

Row | Binder | IC50 [nM]
25 | B24 | 41.2

What follows are binders tested against T1, human GITR-His (assay: PE-ELISA, sample OD against reference OD).
Protocol: as §1

Row | Binder | Ratio (+/-)
26 | B1 | 23.1
27 | B2 | 20.7
28 | B3 | 9.8
29 | B4 | 10
30 | B5 | 22
31 | B6 | 7.78
32 | B7 | 5.04
33 | B8 | 3.31
34 | B9 | 23
35 | B10 | 7.55
36 | B11 | 15.1
37 | B12 | 3.29
38 | B13 | 21.5
39 | B14 | 12.2
40 | B15 | 4
41 | B16 | 11.7
42 | B17 | 6.23
43 | B18 | 32.6
44 | B19 | 29.9
45 | B20 | 20.7
46 | B21 | 4.53
47 | B22 | 18.5
